Data set [1] addresses T1, TFAM (UniProt Q00059 43-245).
T1 sequence: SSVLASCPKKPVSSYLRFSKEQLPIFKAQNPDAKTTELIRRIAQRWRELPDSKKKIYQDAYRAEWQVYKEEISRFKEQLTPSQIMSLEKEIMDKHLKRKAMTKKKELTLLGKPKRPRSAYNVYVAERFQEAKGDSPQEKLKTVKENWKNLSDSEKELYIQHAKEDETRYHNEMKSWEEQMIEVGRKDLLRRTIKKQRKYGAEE
As to the kind of experiment: fluorescence anisotropy; 10 mM Mg acetate; apparent Kd; 50 mM Tris acetate pH 7.5, 100 mM Na glutamate, 50 mM NaCl, 10 mM Mg acetate, 0.5 mM TCEP, 0.01% Tween 20, 0.1 mg/ml BSA, 25 °C; 5 nM DNA, 0-75 nM TFAM. Conditions: protein: recombinant; tags: N-terminal 6xHis, TEV-cleaved; label: fluorescein (FITC) at 3' end of template strand; blunt.

The target of data set [2] is T1, TFAM. As to the kind of experiment: smFRET; bending equilibrium K(F/P) 24.6 ± 7.6; 50 mM Tris acetate pH 7.5, 100 mM Na glutamate, 50 mM NaCl, 10 mM Mg acetate, 0.5 mM TCEP, 0.01% Tween 20, 0.1 mg/ml BSA, 25 °C; 5 nM DNA, 0-75 nM TFAM. The following applies: protein: recombinant; tags: N-terminal 6xHis, TEV-cleaved; label: Atto565 at 5' non-template, Atto647N at 5' template; blunt.

Data set [3] has as its target T2, TFAM-ΔC26 (C-tail deletion) (UniProt Q00059 43-220).
T2 sequence: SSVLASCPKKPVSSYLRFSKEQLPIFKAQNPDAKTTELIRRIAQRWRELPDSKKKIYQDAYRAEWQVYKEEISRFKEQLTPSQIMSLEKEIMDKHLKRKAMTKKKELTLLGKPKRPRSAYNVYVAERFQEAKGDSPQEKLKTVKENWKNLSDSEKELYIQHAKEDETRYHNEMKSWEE
The data set can be described thus: fluorescence anisotropy; 10 mM Mg acetate; 50 mM Tris acetate pH 7.5, 100 mM Na glutamate, 50 mM NaCl, 10 mM Mg acetate, 0.5 mM TCEP, 0.01% Tween 20, 0.1 mg/ml BSA, 25 °C; 5 nM DNA, 0-75 nM TFAM. The following applies: protein: recombinant; tags: SUMO fusion, cleaved; label: fluorescein (FITC) at 3' end of template strand; blunt.

The target of data set [4] is T1, TFAM. As to the kind of experiment: smFRET; bending equilibrium K(F/P) 1.70 ± 0.74; 50 mM Tris acetate pH 7.5, 100 mM Na glutamate, 50 mM NaCl, 10 mM Mg acetate, 0.5 mM TCEP, 0.01% Tween 20, 0.1 mg/ml BSA, 25 °C; 5 nM DNA, 0-75 nM TFAM. The following applies: protein: recombinant; tags: N-terminal 6xHis, TEV-cleaved; label: Atto565 at 5' non-template, Atto647N at 5' template; blunt.

In data set [5] the target is T1, TFAM. As to the kind of experiment: smFRET; bending equilibrium K(F/P) 0.59 ± 0.24; 50 mM Tris acetate pH 7.5, 100 mM Na glutamate, 50 mM NaCl, 10 mM Mg acetate, 0.5 mM TCEP, 0.01% Tween 20, 0.1 mg/ml BSA, 25 °C; 5 nM DNA, 0-75 nM TFAM. The following applies: protein: recombinant; tags: N-terminal 6xHis, TEV-cleaved; label: Atto565 at 5' non-template, Atto647N at 5' template; blunt.

B1: LSP (-41 to -12), fluorescein (dsDNA)
DNA 1: TGTGTTAGTTGGGGGGTGACTGTTAAAAGT
DNA 2: ACTTTTAACAGTCACCCCCCAACTAACACA
Consider B1, for which the Kd with TFAM [1] is roughly 9 nM.

B2: LSP, Atto565/Atto647N (dsDNA)
DNA 1: TGTGTTAGTTGGGGGGTGACTGTTAAAAGT
DNA 2: ACTTTTAACAGTCACCCCCCAACTAACACA
modifications: biotin-2xPEG18 at 3' end of template
For B2, the binding result with TFAM [2] is given as “binds”.

B3: HSP (-41 to -12), fluorescein (dsDNA)
DNA 1: CACACCGCTGCTAACCCCATACCCCGAACC
DNA 2: GGTTCGGGGTATGGGGTTAGCAGCGGTGTG
For B3, the Kd in data set [3] was roughly 100 nM; with TFAM [1] it was roughly 43 nM.

B4: NS (non-specific), fluorescein (dsDNA)
DNA 1: TAGCAGGAGCAGGAACAGGATGAACAAGCA
DNA 2: TGCTTGTTCATCCTGTTCCTGCTCCTGCTA
With B4, the Kd is roughly 100 nM in data set [3] and roughly 44 nM with TFAM [1].

B5: HSP, Atto565/Atto647N (dsDNA)
DNA 1: CACACCGCTGCTAACCCCATACCCCGAACC
DNA 2: GGTTCGGGGTATGGGGTTAGCAGCGGTGTG
modifications: biotin-2xPEG18 at 3' end of template
With B5, the binding result with TFAM [4] is “binds”.

B6: NS, Atto565/Atto647N (dsDNA)
DNA 1: TAGCAGGAGCAGGAACAGGATGAACAAGCA
DNA 2: TGCTTGTTCATCCTGTTCCTGCTCCTGCTA
modifications: biotin-2xPEG18 at 3' end of template
With B6, the binding result with TFAM [5] was “binds”.

These data come from publication PMC11211510, “Sequence-specific dynamic DNA bending explains mitochondrial TFAM’s dual role in DNA packaging and transcription initiation”.
